Assay results as given in paper PMC8860585, “TRIM21 suppresses CHK1 activation by preferentially targeting CLASPIN for K63-linked ubiquitination” (Nucleic Acids Research, 2022).

Biological target: T1, HIS-TRIM21 (human, UniProt P19474 1-475)
T1 construct: human TRIM21 cDNA (full length cDNA by the plasmid paragraph) cloned into pET28a; source: bacterially purified (pET28a)
Assay: pull-down; GST-CLASPIN 301–630aa immobilized on Glutathione Sepharose 4B beads incubated with HIS-TRIM21 for 4 h at 4°C; HIS-TRIM21 by immunoblot
Settings: both partners purified

T1 sequence (P19474 whole entry): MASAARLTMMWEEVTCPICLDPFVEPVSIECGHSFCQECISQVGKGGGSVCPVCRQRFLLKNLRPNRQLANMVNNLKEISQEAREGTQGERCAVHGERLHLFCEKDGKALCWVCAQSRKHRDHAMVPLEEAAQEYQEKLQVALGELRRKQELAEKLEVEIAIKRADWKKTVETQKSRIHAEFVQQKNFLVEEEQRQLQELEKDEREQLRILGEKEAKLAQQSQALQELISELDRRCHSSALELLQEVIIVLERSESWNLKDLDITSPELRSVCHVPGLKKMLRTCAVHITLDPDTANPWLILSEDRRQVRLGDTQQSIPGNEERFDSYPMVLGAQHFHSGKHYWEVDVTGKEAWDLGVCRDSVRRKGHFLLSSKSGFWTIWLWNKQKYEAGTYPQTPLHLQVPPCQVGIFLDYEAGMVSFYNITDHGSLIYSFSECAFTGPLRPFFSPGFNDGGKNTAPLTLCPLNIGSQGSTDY

B1: GST-CLASPIN 301–630aa (domain or fragment, human, UniProt Q9HAW4 301-630, looked up)
chain: ALNLPYHMPENKTIHDFFKRKPRPTCHGNAMALLKSSKYQSSHHKEIIDTANTTEMNSDHHSKGSEQTTGAENEVETNALPVVSKETQIITGSDESCRKDLVKNEELEIQEKQKQSDIRPSPGDSSVLQQESNFLGNNHSEECQVGGLVAFEPHALEGEGPQNPEETDEKVEEPEQQNKSSAVGPPEKVRRFTLDRLKQLGVDVSIKPRLGADEDSFVILEPETNRELEALKQRFWKHANPAAKPRAGQTVNVNVIVKDMGTDGKEELKADVVPVTLAPKKLDGASHTKPGEKLQVLKAKLQEAMKLRRFEERQKRQALFKLDNEDGFEE
notes: human CLASPIN F2 region, residues 301–630; also called GST fusion of the CLASPIN F2 region (301–630aa); source: bacterially purified (pGEX4T-1), immobilized on Glutathione Sepharose 4B
Q: Does B1 bind?
A: binds
